The source of these data is patent US7659073 (HYBRITECH, dated 2010).

Assay [1] concerns the target T1, α1-antichymotrypsin (ACT) (UniProt P01011 24-423).
T1 sequence (looked up): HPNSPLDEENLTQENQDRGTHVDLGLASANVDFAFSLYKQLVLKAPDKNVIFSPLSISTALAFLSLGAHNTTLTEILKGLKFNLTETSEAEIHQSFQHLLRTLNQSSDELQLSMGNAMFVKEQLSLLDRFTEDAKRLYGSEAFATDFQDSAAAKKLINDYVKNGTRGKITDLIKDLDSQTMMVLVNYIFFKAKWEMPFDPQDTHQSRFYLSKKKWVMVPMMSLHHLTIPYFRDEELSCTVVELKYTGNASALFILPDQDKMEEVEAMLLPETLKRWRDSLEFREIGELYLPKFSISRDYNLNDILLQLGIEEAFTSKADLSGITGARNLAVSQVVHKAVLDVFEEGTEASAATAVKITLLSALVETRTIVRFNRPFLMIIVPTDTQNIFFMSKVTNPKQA
Briefly: incubation with ACT, HIC-HPLC profile.

Assay [2] has as its target T1, α1-antichymotrypsin (ACT). Briefly: incubation with ACT for two hours at 37° C., HIC-HPLC profile. The procedure: High performance hydrophobic interaction chromatography (HIC-HPLC) was performed using a polypropylaspartamide column (PolyLC, distributed by Western Analytical, Temecula, Calif.). The column was 4.6×250 mm in length with a 1000 Å pore size. Samples were applied in 1.5 M ammonium sulfate and eluted with a gradient: Buffer A: 1.2 M sodium sulfate, 25 mM sodium phosphate, pH 6.3, and Buffer B: 50 mM sodium phosphate, 5% v/v 2-propanol. The gradient was […], 1 min, 30-80% B, 12 min, then isocratic at 80% B for 2 min before equilibration in Buffer A. High sensitivity peak detection was obtained with a Varian Model 9070 scanning fluorescence detector using an excitation of 232 nm and emission of 334 nm to detect the tryptophan residues in protein.
To confirm that the pro forms of PSA are not reactive with ACT, a mixture of purified mature PSA, [−4]pPSA and [−7, −5]pPSA, were incubated with ACT. […] Only the mature PSA forms an ACT complex.

B1: [-2]pPSA (enzyme)
chain: not shown
notes: It is mature PSA preceded by the leader SR; also called [-2]proPSA
In the case of B1, in assay [1], the binding result is reported as “no binding (tested: 4× excess of ACT)”.

B2: [-7]pPSA (enzyme)
chain: not shown
notes: The purified peak holds about equal levels of [-7]pPSA and [-5]pPSA, which are not resolved from each other; also called [-7]proPSA; full length [-7]pPSA
Consider B2, for which the binding result in assay [2] is listed as “no binding”.

B3: [-5]pPSA (enzyme)
chain: not shown
notes: Not resolved from [-7]pPSA by HIC-HPLC; tested as an about equal mixture with [-7]pPSA; also called [-5]proPSA; part of the [-5/-7]pPSA peak
Consider B3, for which, in assay [1], the binding result is on record as “no binding (tested: 4× excess of ACT)”.

B4: [-4]pPSA (enzyme)
chain: not shown
notes: Recombinant from AV12 cells; also found in pooled prostate cancer serum; also called [-4]proPSA
As for B4, in assay [1], the binding result is listed as “no binding (tested: 4× excess of ACT)”.
